# Results from the supplement of paper PMC5998384.
# Columns and labels:
# [1] = system: HeLa Kyoto; assay: solubility change mitosis vs G1/S (difference of NP-40 vs SDS log2 ratios) (log2 ratio difference); higher = more soluble in mitosis
# [2] = system: HeLa Kyoto; assay: melting temperature (median over replicates), in situ; higher = more thermally stable
# [3] = system: HeLa Kyoto; assay: solubility in G1/S (NP-40 vs SDS abundance) (log2 ratio); higher = more soluble; conditions: cell cycle stage: G1/S
# 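Wherever melting temperature (median over replicates), in situ is given: HeLa Kyoto cells synchronized by double thymidine or nocodazole block, proteins quantified by TMT10plex mass spectrometry, three independent biological replicates.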
# 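Wherever solubility change mitosis vs G1/S (difference of NP-40 vs SDS log2 ratios) is given: synchronized HeLa Kyoto cells (double thymidine block for G1/S, nocodazole release for mitosis), protein amounts in NP-40 versus SDS lysates quantified by mass spectrometry, three biological replicates.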
# 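Wherever solubility in G1/S (NP-40 vs SDS abundance) is given: HeLa Kyoto cells arrested at G1/S by double thymidine block, proteins quantified by TMT10plex mass spectrometry in mild NP-40 versus SDS extracts, three biological replicates.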
Sequence,solubility change mitosis (log2) [1],melting temperature ([2]; cell cycle stage: G1/S),melting temperature ([2]; cell cycle stage: mitosis),solubility in G1/S (log2) [3]
MVPGSEGPARAGSVVADVVFVIEGTANLGPYFEGLRKHYLLPAIEYFNGGPPAETDFGGDYGGTQYSLVVFNTVDCAPESYVQCHAPTSSAYEFVTWLDGIKFMGGGGESCSLIAEGLSTALQLFDDFKKMREQIGQTHRVCLLICNSPPYLLPAVESTTYSGCTTENLVQQIGERGIHFSIVSPRKLPALRLLFEKAAPPALLEPLQPPTDVSQDPRHMVLVRGLVLPVGGGSAPGPLQSKQPVPLPPAAPSGATLSAAPQQPLPPVPPQYQVPGNLSAAQVAAQNAVEAAKNQKAGLGPRFSPITPLQQAAPGVGPPFSQAPAPQLPPGPPGAPKPPPASQPSLVSTVAPGSGLAPTAQPGAPSMAGTVAPGGVSGPSPAQLGAPALGGQQSVSNKLLAWSGVLEWQEKPKPASVDANTKLTRSLPCQVYVNHGENLKTEQWPQKLIMQLIPQQLLTTLGPLFRNSRMVQFHFTNKDLESLKGLYRIMGNGFAGCVHFPHTAPCEVRVLMLLYSSKKKIFMGLIPYDQSGFVNGIRQVITNHKQVQQQKLEQQQRGMGGQQAPPGLGPILEDQARPSQNLLQLRPPQPQPQGTVGASGATGQPQPQGTAQPPPGAPQGPPGAASGPPPPGPILRPQNPGANPQLRSLLLNPPPPQTGVPPPQASLHHLQPPGAPALLPPPHQGLGQPQLGPPLLHPPPAQSWPAQLPPRAPLPGQMLLSGGPRGPVPQPGLQPSVMEDDILMDLI [MED25],-0.172,52.1 °C,50.9 °C,0.612
MSATRAKKVKMATKSCPECDQQVPVACKSCPCGYIFISRKLLNAKHSEKSPPSTENKHEAKRRRTERVRREKINSTVNKDLENRKRSRSNSHSDHIRRGRGRPKSASAKKHEEEREKQEKEIDIYANLSDEKAFVFSVALAEINRKIINQRLIL [C16ORF87],0.198,,50.6 °C,0.019
MAGQHLPVPRLEGVSREQFMQHLYPQRKPLVLEGIDLGPCTSKWTVDYLSQVGGKKEVKIHVAAVAQMDFISKNFVYRTLPFDQLVQRAAEEKHKEFFVSEDEKYYLRSLGEDPRKDVADIRKQFPLLKGDIKFPEFFKEEQFFSSVFRISSPGLQLWTHYDVMDNLLIQVTGKKRVVLFSPRDAQYLYLKGTKSEVLNIDNPDLAKYPLFSKARRYECSLEAGDVLFIPALWFHNVISEEFGVGVNIFWKHLPSECYDKTDTYGNKDPTAASRAAQILDRALKTLAELPEEYRDFYARRMVLHIQDKAYSKNSE [TYW5],-0.114,53.8 °C,53.8 °C,-0.0115
MANSANTNTVPKLYRSVIEDVINDVRDIFLDDGVDEQVLMELKTLWENKLMQSRAVDGFHSEEQQLLLQVQQQHQPQQQQHHHHHHHQQAQPQQTVPQQAQTQQVLIPASQQATAPQVIVPDSKLIQHMNASNMSAAATAATLALPAGVTPVQQILTNSGQLLQVVRAANGAQYIFQPQQSVVLQQQVIPQMQPGGVQAPVIQQVLAPLPGGISPQTGVIIQPQQILFTGNKTQVIPTTVAAPTPAQAQITATGQQQPQAQPAQTQAPLVLQVDGTGDTSSEEDEDEEEDYDDDEEEDKEKDGAEDGQVEEEPLNSEDDVSDEEGQELFDTENVVVCQYDKIHRSKNKWKFHLKDGIMNLNGRDYIFSKAIGDAEW [GTF2A1],0.475,56.2 °C,57.2 °C,-0.719
MSDCYTELEKAVIVLVENFYKYVSKYSLVKNKISKSSFREMLQKELNHMLSDTGNRKAADKLIQNLDANHDGRISFDEYWTLIGGITGPIAKLIHEQEQQSSS [S100A16],0.301,51.3 °C,,-0.172
MKVLLLKDAKEDDCGQDPYIRELGLYGLEATLIPVLSFEFLSLPSFSEKLSHPEDYGGLIFTSPRAVEAAELCLEQNNKTEVWERSLKEKWNAKSVYVVGNATASLVSKIGLDTEGETCGNAEKLAEYICSRESSALPLLFPCGNLKREILPKALKDKGIAMESITVYQTVAHPGIQGNLNSYYSQQGVPASITFFSPSGLTYSLKHIQELSGDNIDQIKFAAIGPTTARALAAQGLPVSCTAESPTPQALATGIRKALQPHGCC [UROS],0.14,51.5 °C,52.4 °C,0.234
MGKEKTHINIVVIGHVDSGKSTTTGHLIYKCGGIDKRTIEKFEKEAAEMGKGSFKYAWVLDKLKAERERGITIDISLWKFETSKYYVTIIDAPGHRDFIKNMITGTSQADCAVLIVAAGVGEFEAGISKNGQTREHALLAYTLGVKQLIVGVNKMDSTEPPYSQKRYEEIVKEVSTYIKKIGYNPDTVAFVPISGWNGDNMLEPSANMPWFKGWKVTRKDGNASGTTLLEALDCILPPTRPTDKPLRLPLQDVYKIGGIGTVPVGRVETGVLKPGMVVTFAPVNVTTEVKSVEMHHEALSEALPGDNVGFKVKNVSVKDVRRGNVAGDSKNDPPMEAAGFTAQVIILNHPGQISAGYAPVLDCHMAHIACKFAELKEKIDRRSGKKLEDGPKFLKSGDAAIVDMVPGKPMCVESFSDYPPLGRFAVRDMRQTVAVGVIKAVDKKAAGAGKVTKSAQKAQKAK [EEF1A1P5],-0.0239,52.4 °C,52.4 °C,0.301
MPNFCAAPNCTRKSTQSDLAFFRFPRDPARCQKWVENCRRADLEDKTPDQLNKHYRLCAKHFETSMICRTSPYRTVLRDNAIPTIFDLTSHLNNPHSRHRKRIKELSEDEIRTLKQKKIDETSEQEQKHKETNNSNAQNPSEEEGEGQDEDILPLTLEEKENKEYLKSLFEILILMGKQNIPLDGHEADEIPEGLFTPDNFQALLECRINSGEEVLRKRFETTAVNTLFCSKTQQRQMLEICESCIREETLREVRDSHFFSIITDDVVDIAGEEHLPVLVRFVDESHNLREEFIGFLPYEADAEILAVKFHTMITEKWGLNMEYCRGQAYIVSSGFSSKMKVVASRLLEKYPQAIYTLCSSCALNMWLAKSVPVMGVSVALGTIEEVCSFFHRSPQLLLELDNVISVLFQNSKERGKELKEICHSQWTGRHDAFEILVELLQALVLCLDGINSDTNIRWNNYIAGRAFVLCSAVSDFDFIVTIVVLKNVLSFTRAFGKNLQGQTSDVFFAAGSLTAVLHSLNEVMENIEVYHEFWFEEATNLATKLDIQMKLPGKFRRAHQGNLESQLTSESYYKETLSVPTVEHIIQELKDIFSEQHLKALKCLSLVPSVMGQLKFNTSEEHHADMYRSDLPNPDTLSAELHCWRIKWKHRGKDIELPSTIYEALHLPDIKFFPNVYALLKVLCILPVMKVENERYENGRKRLKAYLRNTLTDQRSSNLALLNINFDIKHDLDLMVDTYIKLYTSKSELPTDNSETVENT [PRKRIR],-0.0658,51.3 °C,50.9 °C,0.246
MAQETNHSQVPMLCSTGCGFYGNPRTNGMCSVCYKEHLQRQNSSNGRISPPATSVSSLSESLPVQCTDGSVPEAQSALDSTSSSMQPSPVSNQSLLSESVASSQLDSTSVDKAVPETEDVQASVSDTAQQPSEEQSKSLEKPKQKKNRCFMCRKKVGLTGFECRCGNVYCGVHRYSDVHNCSYNYKADAAEKIRKENPVVVGEKIQKI [ZFAND6],-0.182,56.7 °C,,0.396
MADKPDMGEIASFDKAKLKKTETQEKNTLPTKETIEQEKRSEIS [TMSB10],0.336,53.8 °C,,-1.37
MALFPAFAGLSEAPDGGSSRKELDWLSNPSFCVGSITSLSQQTEAAPAHVSEGLPLTRSHLKSESSDESDTNKKLKQTSRKKKKEKKKKRKHQHHKKTKRKHGPSSSSRSETDTDSEKDKPSRGVGGSKKESEEPNQGNNAAADTGHRFVWLEDIQAVTGETFRTDKKPDPANWEYKSLYRGDIARYKRKGDSCLGINPKKQCISWEGTSTEKKHSRKQVERYFTKKSVGLMNIDGVAISSKTEPPSSEPISFIPVKDLEDAAPVTTWLNPLGIYDQSTTHWLQGQGPPEQESKQPDAQPDSESAALKAKVEEFNRRVRENPRDTQLWMAFVAFQDEVMKSPGLYAIEEGEQEKRKRSLKLILEKKLAILERAIESNQSSVDLKLAKLKLCTEFWEPSTLVKEWQKLIFLHPNNTALWQKYLLFCQSQFSTFSISKIHSLYGKCLSTLSAVKDGSILSHPALPGTEEAMFALFLQQCHFLRQAGHSEKAISLFQAMVDFTFFKPDSVKDLPTKGQVEFFEPFWDSGEPRAGEKGARGWKAWMHQQERGGWVVINPDEDDDEPEEDDQEIKDKTLPRWQIWLAAERSRDQRHWRPWRPDKTKKQTEEDCEDPERQVLFDDIGQSLIRLSSHDLQFQLVEAFLQFLGVPSGFTPPASCLYLAMDENSIFDNGLYDEKPLTFFNPLFSGASCVGRMDRLGYPRWTRGQNREGEEFIRNVFHLVMPLFSGKEKSQLCFSWLQYEIAKVIWCLHTKNKKRLKSQGKNCKKLAKNLLKEPENCNNFCLWKQYAHLEWLLGNTEDARKVFDTALGMAGSRELKDSDLCELSLLYAELEVELSPEVRRAATARAVHILTKLTESSPYGPYTGQVLAVHILKARKAYEHALQDCLGDSCVSNPAPTDSCSRLISLAKCFMLFQYLTIGIDAAVQIYEQVFAKLNSSVFPEGSGEGDSASSQSWTSVLEAITLMHTSLLRFHMKVSVYPLAPLREALSQALKLYPGNQVLWRSYVQIQNKSHSASKTRRFFDTITRSAKPLEPWLFAIEAEKLRKRLVETVQRLDGREIHATIPETGLMHRIQALFENAMRSDSGSQCPLLWRMYLNFLVSLGNKERSKGVFYKALQNCPWAKVLYLDAVEYFPDEMQEILDLMTEKELRVRLPLEELELLLED [NRDE2],-0.031,48.5 °C,49 °C,-0.208
MDLHMMNCELLATCSALGYLEGDTYHKEPDCLESVKDLIRYLRHEDETRDVRQQLGAAQILQSDLLPILTQHHQDKPLFDAVIRLMVNLTQPALLCFGNLPKEPSFRHHFLQVLTYLQAYKEAFASEKAFGVLSETLYELLQLGWEERQEEDNLLIERILLLVRNILHVPADLDQEKKIDDDASAHDQLLWAIHLSGLDDLLLFLASSSAEEQWSLHVLEIVSLMFRDQNPEQLAGVGQGRLAQERSADFAELEVLRQREMAEKKTRALQRGNRHSRFGGSYIVQGLKSIGERDLIFHKGLHNLRNYSSDLGKQPKKVPKRRQAARELSIQRRSALNVRLFLRDFCSEFLENCYNRLMGSVKDHLLREKAQQHDETYYMWALAFFMAFNRAASFRPGLVSETLSVRTFHFIEQNLTNYYEMMLTDRKEAASWARRMHLALKAYQELLATVNEMDISPDEAVRESSRIIKNNIFYVMEYRELFLALFRKFDERCQPRSFLRDLVETTHLFLKMLERFCRSRGNLVVQNKQKKRRKKKKKVLDQAIVSGNVPSSPEEVEAVWPALAEQLQCCAQNSELSMDSVVPFDAASEVPVEEQRAEAMVRIQDCLLAGQAPQALTLLRSAREVWPEGDVFGSQDISPEEEIQLLKQILSAPLPRQQGPEERGAEEEEEEEEEEEEELQVVQVSEKEFNFLDYLKRFACSTVVRAYVLLLRSYQQNSAHTNHCIVKMLHRLAHDLKMEALLFQLSVFCLFNRLLSDPAAGAYKELVTFAKYILGKFFALAAVNQKAFVELLFWKNTAVVREMTEGYGSLDDRSSSRRAPTWSPEEEAHLRELYLANKDVEGQDVVEAILAHLNTVPRTRKQIIHHLVQMGLADSVKDFQRKGTHIVLWTGDQELELQRLFEEFRDSDDVLGHIMKNITAKRSRARIVDKLLALGLVAERRELYKKRQKKLASSILPNGAESLKDFCQEDLEEEENLPEEDSEEEEEGGSEAEQVQGSLVLSNENLGQSLHQEGFSIPLLWLQNCLIRAADDREEDGCSQAVPLVPLTEENEEAMENEQFQQLLRKLGVRPPASGQETFWRIPAKLSPTQLRRAAASLSQPEEEQKLQPELQPKVPGEQGSDEEHCKEHRAQALRALLLAHKKKAGLASPEEEDAVGKEPLKAAPKKRQLLDSDEEQEEDEGRNRAPELGAPGIQKKKRYQIEDDEDD [TIMELESS],-0.0762,49.5 °C,49.2 °C,-0.204
